Laboratory results from patent US11541101 (UNIVERSITY OF VIRGINIA PATENT FOUNDATION, dated 2023).

Target: T1, LEM domain containing protein 3 (LEMD3), endogenous (human, UniProt Q9Y2U8 2-911)
T1 construct: also called endogenous LEMD3; native LEMD3
T1 sequence: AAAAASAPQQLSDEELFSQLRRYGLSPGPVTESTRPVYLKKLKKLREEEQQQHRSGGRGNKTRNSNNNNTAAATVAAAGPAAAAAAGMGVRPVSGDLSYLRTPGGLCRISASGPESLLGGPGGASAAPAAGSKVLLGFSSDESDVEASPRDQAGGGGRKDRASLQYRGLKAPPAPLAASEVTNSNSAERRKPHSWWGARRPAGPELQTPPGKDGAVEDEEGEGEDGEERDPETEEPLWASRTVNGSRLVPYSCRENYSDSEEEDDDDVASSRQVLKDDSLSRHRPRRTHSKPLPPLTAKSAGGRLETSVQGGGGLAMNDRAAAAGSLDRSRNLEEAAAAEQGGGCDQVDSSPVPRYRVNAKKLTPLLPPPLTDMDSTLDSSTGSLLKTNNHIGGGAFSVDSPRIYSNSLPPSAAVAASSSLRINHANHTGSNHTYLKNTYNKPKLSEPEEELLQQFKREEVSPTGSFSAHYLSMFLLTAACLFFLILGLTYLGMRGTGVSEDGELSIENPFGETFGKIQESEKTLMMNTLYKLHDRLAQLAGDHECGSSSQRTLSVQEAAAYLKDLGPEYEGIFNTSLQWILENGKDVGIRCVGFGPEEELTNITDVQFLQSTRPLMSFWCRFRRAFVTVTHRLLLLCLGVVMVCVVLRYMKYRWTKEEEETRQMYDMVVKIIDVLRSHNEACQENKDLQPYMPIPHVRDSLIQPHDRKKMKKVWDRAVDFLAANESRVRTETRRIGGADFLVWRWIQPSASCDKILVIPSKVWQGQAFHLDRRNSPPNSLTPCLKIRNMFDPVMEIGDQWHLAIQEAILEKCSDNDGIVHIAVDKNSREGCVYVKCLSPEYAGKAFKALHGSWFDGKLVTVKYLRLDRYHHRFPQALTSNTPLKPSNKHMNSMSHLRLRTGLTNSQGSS
Test: LEMD3-PPM1α PLA in HFFs on glass; significant in cytoplasm and nucleus
Protocol: In vitro PLA: Protein-protein PLA was per-formed with antibody pairs listed in Table 4 as described in (42) with the following modifications: cells were plated on FN-coated glass or hydrogels (Matrigen, Brea, Calif.). All primary antibody in-cubations were performed for 16-24 hours at 4 C and cells were counter-stained with 1:40 phalloidin-488 or phalloidin-546 in 1×PBS for 30 minutes at room tempera-ture and/or further processed for IF imaging using the procedure recommended in Sigma's PLA Resource Center. For all recombinant LEMD3 and C-terminal fragment experiments, HFFs were electroporated as above and allowed to culture for 24 hours on 10 µg/mL fibronectin coated glass or hydrogels before fixation. For LEMD3-phospho-Smad2/3, LEMD3-Smad2/3+TGFβ and for Smad2/3-Smad4 PLA assays: cells were treated 90 minutes before fixation with 50 µg/mL for LEMD3- and CTF-Smad2/3 assays, 100 µg/mL TGFβ for LEMD3-phospho-Smad2/3 experiments and 500 µg/mL TGFβ for Smad2/3-Smad4 experiments. […] Imaging and analysis were performed as described for high-resolution ex vivo PLA signals except that no tissue autofluorescence signal was measured or needed to be subtracted and, when appro-priate, other IF signal (e.g. FLAG) were measured in parallel. […] Instead the PLA signal was quantified as the PLA volume divided by the nuclear intensity for each image.

B1: Protein Phosphatase, Mg2+/Mn2+ Dependent 1α (PPM1α) (enzyme, human, UniProt P35813 2-382, looked up)
chain: GAFLDKPKMEKHNAQGQGNGLRYGLSSMQGWRVEMEDAHTAVIGLPSGLESWSFFAVYDGHAGSQVAKYCCEHLLDHITNNQDFKGSAGAPSVENVKNGIRTGFLEIDEHMRVMSEKKHGADRSGSTAVGVLISPQHTYFINCGDSRGLLCRNRKVHFFTQDHKPSNPLEKERIQNAGGSVMIQRVNGSLAVSRALGDFDYKCVHGKGPTEQLVSPEPEVHDIERSEEDDQFIILACDGIWDVMGNEELCDFVRSRLEVTDDLEKVCNEVVDTCLYKGSRDNMSVILICFPNAPKVSPEAVKKEAELDKYLECRVEEIIKKQGEGVPDLVHVMRTLASENIPSLPPGGELASKRNVIEAVYNRLNPYKNDDTDSTSTDDMW
notes: whole, on cells; Endogenous protein inside fixed HFFs, detected by PLA with antibody 7F12; also called PPM1a
- binding result: binds
